US20040170622A1, “Methods and compositions for modulating XBP-1 activity” (President and Fellows of Harvard College, priority 2002, published 2004)
Each block holds one molecule with its values, some of them ahead of it.

Columns and labels:
[1] = test system: IRE1α-mediated XBP-1 mRNA splicing; test: XBP-1 mRNA level and splicing in J558 cells (Northern blot, RT-PCR); format: cell-based; conditions: J558, Tm 4 hrs; MG-132 10 μM, PS-341 10 μM, ZL3VS 50 μM, AdaAhxL3VS 50 μM
Experimental: (A) XBP-1 mRNA levels in ER stressed J558 cells treated with Tm for 4 hrs in the absence or presence of MG-132. Cells were pretreated with MG-132 for 1 hr before adding Tm. XBP-1 mRNA levels were determined by Northern blot analysis. […] (C) Effect of a panel of PIs on XBP-1 splicing. Cells were treated with Tm for 4 hrs in the absence or presence of MG-132 (10 μM), PS-341 (10 μM), Lactacystin (10 μM), ZL3VS (50 μM) or AdaAhxL3VS (50 μM), and XBP-1 mRNA splicing measured by RT-PCR analysis. (D) IRE-1α phosphorylation in NIH3T3 cells were treated with Tm as indicated after 2 hrs of pretreatment with MG-132 (10 μM).
Total RNA was prepared by using Trizol reagent, electrophoresed on 1.2% agarose, 6% formaldehyde gels and then transferred onto Genescreen Plus membrane, (NEN, Boston, Mass.). […] Probes for ERdj4 and p58^IPK were generated from cDNA excised from EST clones (ATCC, Manassas, Va.) using appropriate restriction enzymes (ERdj4, IMAGE: 1920927; p58^IPK, IMAGE:2646147).

XBP-1 mRNA = XBP-1 mRNA induction by cytokines in purified splenic B cells (Northern blot); format: cell-based, mouse; conditions: 20 μg/ml cycloheximide added 30 min before IL-4, 4 hours
Experimental: (§1) Mouse splenocytes or purified B cells (purified mature B cells were isolated from spleen and lymph nodes by magnetic CD43 depletion or B220 magnetic bead selection, Miltenyi Biotech, Auburn Calif.) were plated at 1×10^6 cells/ml in complete media containing RPMI 1640 supplemented with 10% fetal calf serum (FBS)(Hyclone Laboratories), glutamine (2 mM), penicillin (50 units/ml), streptomycin (50 μg/ml), Hepes (100 mM), nonessential amino acids (1×) sodium pyruvate (1 mM) and β-ME (50 μM) and stimulated with anti-CD40(1 μg/ml)(Pharmigen) or LPS (20 μg/ml)(Sigma). Cytokines (R&D Systems, Minneapolis, Minn.) were used at IL-4 (20 ng/ml), IL-2 (20 ng/ml), Il-5 (20 ng/ml), IL-6 (20 ng/ml ), IL-10 (20 ng/ml ) and IL-13 (20 ng/ml). Stimulated B cells were split to a cell concentration of 1×10^6 cells/ml with fresh media every 24 h. The BCL1 (CWS13.20-3B3 ATCC CRL 1699) cell line was cultured in RPMI media supplemented with 10% FBS, gentamicin (20 μg/ml), and β-ME (50 μM). To induce differentiation cells were plated at 2×10^5 cells/ml and treated with recombinant mouse IL-2 and IL-5 (20 ng/ml) (R&D systems).
Total RNA was isolated using TriZo1 (Gibco-BRL) or Qiashedder/Rneasy RNA purification columns (Quiagen). Northern Blots were performed as described (Rengarajan et al., 2000 Immunity. 12:293-300). Briefly, 7-10 μg RNA were electrophoresed on 1.2% agarose, 6% formaldehyde gels transferred onto Genescreen membrane (NEN) and covalently bound to the membrane using UV Stratalinker (Stratagene). The following probes were used after ^32P-radiolabeling with the ReadyPrime labeling system (Amersham-Pharmacia): XBP-1 (15-830 of the murine coding region), GRP94 and GRP78 (both a kind gift of R. J. Kaufman Univ. of Michigan (Lee et al., 2002)), Blimp (Nco1-Sca1 fragment), c-myc cDNA and Il-6 cDNA . […]
Since XBP-1 is required for terminal B cell differentiation, it was important to identify the stimuli that regulate XBP-1 gene expression. A plethora of cytokines (IL-2, IL-4, IL-5, IL-6, IL-10, IL-13) has been implicated in plasma cell differentiation both in vitro and in vivo (reviewed in Calame, K. L. (2001 Nat. Inimunol. 2: 1103-1108; Liu, Y. J., and Banchereau, J. (1997). Sem Immunol 9: 235; Zubler, 1997Sem. Hematol 34:13). It was possible that these cytokines effected terminal B cell differentiation by modulating XBP-1 gene expression. Thus, the ability of these cytokines to upregulate XBP-1 mRNA transcripts in B cells was tested. Purified splenic B cells were cultured for 24 h in the presence or absence of various cytokines and XBP-1 expression determined by Northern blot analysis. […] XBP-1 mRNA levels were determined by Northern blot analysis with γ-actin as control. […] XBP-1 mRNA levels were determined as above. […]

[2] = target: XBP-1s (spliced form of murine XBP-1 protein, 371 aa) (mouse) (UniProt O35426); test: cell-based or functional assay
XBP-1^−/− B cells = test: Ig production by retrovirally transduced XBP-1-/- primary B cells (ELISA); format: cell-based, mouse; conditions: LPS 10 μg/ml 72 h
Experimental: (§2) Assays to measure immunoglobulin or cytokine levels in culture supernatants were performed as described (e.g., Hodge et al., 1996 Immunity. 4:397-405 or Science. 1996 274:1903-5).
(§3) The XBP-1 cDNAs for the unspliced (XBP-1u/s) and the spliced (XBP-1s) forms were PCR-amplified from the total RNA of untreated and tunicamycin treated NIH3T3 cells, respectively, with a primer set (5′-[…]-3′ (SEQ ID NO: 7) and 5′-[…]-3′) (SEQ ID NO: 8). XBP-1u form was generated by a PCR-based mutagenesis from XBP-unspliced/s cDNA so that the two G residues at position 532 and 535 were changed to A without changing amino acid sequences in the XBP-1u open reading frame. Numbers are based on the sequences from gene bank database (NM_013842 [gi:13775155]). These XBP-1 cDNAs were inserted into the GFP-RV retroviral vector by using blunt end ligation (Sambrook et al., 1989). EFFECTENE transfection (Quiagen) was used to introduce the DNA into the Phoenix cell line as described by manufacturer (e.g., Reimold et al., 2001 Nature. 412:300-7 or Int Immunol. 2001 13:241-8). Viral supernatants were harvested after 48 hours and frozen at −80° C. for later use. B cells were purified from mouse spleens using CD43 depletion or positive selection with B220+ magnetic beads as described by the manufacturer (MidiMacs, Miltenyi Biotech). B cell purity was generally near 95% as confirmed by flow cytometry. The B cells (10^6 cells /ml) were then activated in culture with LPS 10 μg/ml and F (ab′)2 anti-IgM (5 μg/ml Southern Biotechnology Associates Inc.) for 24 hours. The 1 ml of activated B cells (10^6 cells/ml) were mixed with 4 μg of polybrene and 1 ml of virus-containing supernatant and spun at 1000 g for 45 minutes at 24° C. Cells were incubated for 24-36 h at 37° C. and then GFP+ cells were flow sorted and returned to culture with and without stimulation.
The effects of these three different forms of XBP-1 on Ig secretion were compared in wild type and XBP-1^−/− B cells. In vitro activated splenic B cells were transduced using retroviruses expressing bicistronic mRNA encoding XBP-1u/s, XBP-1s, XBP-1u or control GFP. In FIGS. 5(A) and (B) purified B cells from wt and XBP-1^−/− mice were activated in culture with LPS 10 μg/ml and F (ab′)2 anti-IgM (5 μg/ml) for 24 hours. Retroviral transduction with GFP alone (GFP-Rv), XBP-1u/s (XBP-1u/s GFP Rv), XBP-1s (XBP-1s GFP Rv) or XBP-1u (XBP-1u GFP Rv) of activated B cells was performed. Cells were incubated for 24-36 h at 37° C. and then GFP+ cells were flow sorted and then returned to culture with LPS stimulation (10 μg/ml) for 72 h. IgM panel(A) and IgG2b panel (B) production analyzed by ELISA from culture supernatants of stimulated B cells. Experiments were done at least three times and standard deviation is shown.

IL-6 = IL-6 production by retrovirally transduced wt and XBP-1-/- B cells (ELISA, Northern blot); format: cell-based, murine; conditions: LPS 72 h
Experimental: as §2, §3
In human multiple myeloma cells, XBP-1 was induced by IL-6 treatment and implicated in the proliferation of malignant plasma cells (Wen et al., 1999). However, no role for IL-6 in upregulating XBP-1 transcripts or in mediating splicing of XBP-1 RNA in mature B cells has been described (FIG. 6A). The ability of XBP-1 to induce IL-6 production in wt and XBP-1^−/− primary B cells was tested. As described above, in vitro activated murine splenic B cells were transduced using retroviruses expressing bicistronic mRNA for XBP-1u/s, XBP-1s, XBP-1u and control GFP. After cell sorting, GFP^+ cells were stimulated with LPS and assayed for cytokine production after 72 h. In FIG. 6 panel (A) purified B cells from wt and XBP-1^−/− mice were activated in culture with LPS 10 μg/ml and F(ab′)2 anti-IgM (5 μg/ml ) for 24 hours. Retroviral transduction with GFP alone (GFP-Rv), XBP-1u/s (XBP-1 u/s GFP Rv), XBP-1s (XBP-1s GFP Rv) or XBP-1u (XBP-1u GFP Rv) of activated B cells was performed. Cells were incubated for 24-36 h at 37° C. and then GFP+ cells were flow sorted and then returned to culture with LPS stimulation (10 μg/ml) for 72 h. Cytokine production was analyzed by ELISA from culture supernatants of stimulated B cells. Experiments were done at least three times and standard deviation is shown. In panel (B) Total RNAs were prepared from stimulated B cells above and XBP-1 mRNA levels were determined by Northern blot analysis with γ-actin control

BCL-1 cells = test: IgM secretion by retrovirally transduced BCL-1 cells (ELISA); format: cell-based
Experimental: as §1, §2
as §3, with “The 1 ml of activated B cells (10^6 cells/ml) were mixed with 4 μg of polybrene and 1 ml of virus-containing supernatant and spun at 1000 g for 45 minutes at 24° C. Cells were incubated for 24-36 h at 37° C. and then GFP+ cells were flow sorted and returned to culture with and without stimulation.” left out

Molecule: CC(C)C[C@@H](/C=C/S(C)(=O)=O)NC(=O)[C@H](CC(C)C)NC(=O)[C@H](CC(C)C)NC(=O)CCCCCNC(=O)CCCCCNC(=O)CCCCCNC(=O)CC12CC3CC(CC(C3)C1)C2 [AdaAhx3L3VS]
effect on Tm-induced XBP-1 mRNA splicing [1]: suppressed XBP-1 mRNA splicing as efficiently as MG-132

Molecule: CC(C)C[C@@H](/C=C/S(C)(=O)=O)NC(=O)[C@H](CC(C)C)NC(=O)[C@H](CC(C)C)NC(=O)OCc1ccccc1 [ZL3VS]
effect on Tm-induced XBP-1 mRNA splicing [1]: suppressed XBP-1 mRNA splicing as efficiently as MG-132

Molecule: C[C@@H]1C[C@@H]([C@H](O)CC2CC(=O)NC(=O)C2)C(=O)[C@@H](C)C1 [cycloheximide, reference compound]
effect on IL-4-induced upregulation of XBP-1 mRNA (XBP-1 mRNA): did not affect the upregulation of XBP-1 mRNA in response to IL-4

fold induction of luciferase, XBP-luciferase reporter in NIH3T3 cells, 5 uM MG-132, with unspliced XBP-1 (fold induction) [2]: 5.8 | fold induction of luciferase, XBP-luciferase reporter in NIH3T3 cells, 5 uM MG-132, without unspliced XBP-1 (fold induction) [2]: 41.9
Molecule: XBP-1u (unspliced form of murine XBP-1 protein, 267 aa) (from UniProt O35426 1-267)

relative luciferase activity in NIH 3T3 cells (44.5 with 200 ng of spliced XBP-1 alone) (relative luciferase activity) [2]: 2.2
Molecule: XBP-N136 (N terminal 136 amino acids of the spliced form of XBP-1) (from UniProt O35426 1-136)

B1: XBP-1u/s: vector expressing XBP-1 mRNA giving the unspliced form and, upon IRE-dependent splicing, the spliced form (protein, UniProt O35426 1-267, looked up)
X-box-binding protein 1: MVVVAAAPSAATAAPKVLLLSGQPASGGRALPLMVPGPRAAGSEASGTPQARKRQRLTHLSPEEKALRRKLKNRVAAQTARDRKKARMSELEQQVVDLEEENHKLQLENQLLREKTHGLVVENQELRTRLGMDTLDPDEVPEVEAKGSGVRLVAGSAESAALRLCAPLQQVQAQLSPPQNIFPWTLTLLPLQILSLISFWAFWTSWTLSCFSNVLPQSLLVWRNSQRSTQKDLVPYQPPFLCQWGPHQPSWKPLMNSFVLTMYTPSL
modifications: GFP retroviral vector
notes: vector expressing XBP-1 mRNA giving the unspliced form and, upon IRE-dependent splicing, the spliced form
secretion of IgM compared to control cells (XBP-1^−/− B cells): approximately ten-fold | IL-6 secretion over control (IL-6): approximately 2 fold | IgM secretion compared to vector alone controls (BCL-1 cells; GFP positive BCL-1 cells treated with IL-2 and IL-5 for 3 days): approximately threefold | Ig secretion (BCL-1 cells; GFP positive BCL-1 cells untreated with cytokine): neither XBP-1u/s nor XBP-1s forms were able to induce Ig secretion
